Our source for the ELISA Site 1 [%] (activity compared with the reference) and ELISA Site 2 [%] (activity compared with the reference) values is patent US20100113355A1.

In assay [1] the target is T1, Biotin-… antigenic peptide (epitope sequence from candidal Hsp90) (Candida ("candidal Hsp90")). Description: ELISA, biotinylated hsp90 peptide on streptavidin plate, anti-His-HRP detection; % activity against Mycograb reference standard; site 1; sample in 0.5 M urea, 0.2 M L-arginine pH 9.5. (In an ELISA, binding on a coated surface is turned into a signal by an enzyme label.)

The target in assay [2] is T1, Biotin-… antigenic peptide (epitope …). Briefly: ELISA, biotinylated hsp90 peptide on streptavidin plate, anti-His-HRP detection; % activity against Mycograb reference standard; site 1; sample in 50 mM Tris, 3 mM DTT, pH 9.0.
Assay [3] has the same target. Description: ELISA, biotinylated hsp90 peptide on streptavidin plate, anti-His-HRP detection; % activity against Mycograb reference standard; site 2; sample in 50 mM Tris, pH 9.0.
For assay [4] the target is unchanged. Briefly: ELISA, biotinylated hsp90 peptide on streptavidin plate, anti-His-HRP detection; % activity against Mycograb reference standard; site 1; sample in 50 mM Tris, pH 9.0.
The target is the same in assay [5]. Briefly: ELISA, biotinylated hsp90 peptide on streptavidin plate, anti-His-HRP detection; % activity against Mycograb reference standard; site 2; sample in 50 mM Tris, 3 mM DTT, pH 9.0.
Assay [6] has the same target. Briefly: ELISA, biotinylated hsp90 peptide on streptavidin plate, anti-His-HRP detection; % activity against Mycograb reference standard; site 2; sample in 0.5 M urea, 0.2 M L-arginine pH 9.5.
For assay [7] the target is unchanged. Briefly: ELISA, biotinylated hsp90 peptide on streptavidin plate, anti-His-HRP detection; % activity against Mycograb reference standard; site 1; sample in 50 mM Tris, 1 M sucrose, ~0.2% Tween20, 3 mM DTT, pH 3.0.
Assay [8] has the same target. Briefly: ELISA, biotinylated hsp90 peptide on streptavidin plate, anti-His-HRP detection; % activity against Mycograb reference standard; site 2; sample in 50 mM Tris, 1 M sucrose, ~0.2% Tween20, 3 mM DTT, pH 3.0.

B1: MYC123 ("wild type" Mycograb) scFv peptide (scFv)
scFv: MAEVQLVESGAEVKKPGESLRISCKGSGCIISSYWISWVRQMPGKGLEWMGKIDPGDSYINYSPSFQGHVTISADKSINTAYLQWNSLKASDTAMYYCARGGRDFGDSFDYWGQGTLVTVSSGGGGSGGGGSGGGGSDVVMTQSPSFLSAFVGDRITITCRASSGISRYLAWYQQAPGKAPKLLIYAASTLQTGVPSRFSGSGSGTEFTLTINSLQPEDFATYYCQHLNSYPLTFGGGTKVDIKRAAALEHHHHHH
Regarding B1, the ELISA Site 1 [%] (activity compared with the reference) in assay [1] stood at 90%; in assay [2], 85%; in assay [4], 71%; in assay [7], 135%. Besides, the ELISA Site 2 [%] (activity compared with the reference) in assay [3] stood at 95%; in assay [5], 131%; in assay [6], 78%; in assay [8] it was 130%.
